According to US11634486B2, “Anti-SEZ6L2 antibodies and antibody drug conjugates” (Bluefin BioMedicine, Inc., priority 2016, dated 2023):

T1: SEZ6L (293-SEZ6L) (Homo sapiens, UniProt Q9BYH1)
T1 construct: expressed in transfected cells; host or cells: HEK 293
T1 sequence (Q9BYH1 29-1024): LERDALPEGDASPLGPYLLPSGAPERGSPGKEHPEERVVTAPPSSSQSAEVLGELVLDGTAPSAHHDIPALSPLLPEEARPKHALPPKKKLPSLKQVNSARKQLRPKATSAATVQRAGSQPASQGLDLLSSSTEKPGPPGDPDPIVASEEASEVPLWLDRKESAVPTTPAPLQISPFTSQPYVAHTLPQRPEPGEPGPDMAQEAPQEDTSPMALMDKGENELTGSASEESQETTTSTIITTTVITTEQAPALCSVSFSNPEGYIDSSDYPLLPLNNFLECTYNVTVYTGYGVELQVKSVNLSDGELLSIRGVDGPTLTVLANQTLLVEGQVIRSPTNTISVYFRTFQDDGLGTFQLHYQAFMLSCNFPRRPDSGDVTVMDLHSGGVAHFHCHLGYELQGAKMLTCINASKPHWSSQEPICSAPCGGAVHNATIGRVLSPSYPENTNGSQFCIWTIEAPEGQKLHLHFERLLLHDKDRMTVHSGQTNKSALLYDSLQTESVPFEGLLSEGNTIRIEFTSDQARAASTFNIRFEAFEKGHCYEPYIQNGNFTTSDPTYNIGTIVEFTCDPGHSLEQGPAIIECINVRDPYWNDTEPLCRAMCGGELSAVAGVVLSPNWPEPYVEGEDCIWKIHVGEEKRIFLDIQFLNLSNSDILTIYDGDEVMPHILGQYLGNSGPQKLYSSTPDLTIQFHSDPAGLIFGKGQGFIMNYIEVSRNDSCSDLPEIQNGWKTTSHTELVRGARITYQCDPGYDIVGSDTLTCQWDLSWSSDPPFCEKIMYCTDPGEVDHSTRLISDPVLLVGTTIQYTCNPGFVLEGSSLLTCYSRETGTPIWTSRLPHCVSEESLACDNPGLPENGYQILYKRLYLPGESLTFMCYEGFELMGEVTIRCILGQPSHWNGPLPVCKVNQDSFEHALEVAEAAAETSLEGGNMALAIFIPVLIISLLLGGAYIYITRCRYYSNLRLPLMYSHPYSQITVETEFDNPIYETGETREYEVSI

T2: SEZ6 (293-SEZ6) (Homo sapiens, UniProt Q53EL9)
T2 construct: expressed in transfected cells; host or cells: HEK 293
T2 sequence (Q53EL9 20-994): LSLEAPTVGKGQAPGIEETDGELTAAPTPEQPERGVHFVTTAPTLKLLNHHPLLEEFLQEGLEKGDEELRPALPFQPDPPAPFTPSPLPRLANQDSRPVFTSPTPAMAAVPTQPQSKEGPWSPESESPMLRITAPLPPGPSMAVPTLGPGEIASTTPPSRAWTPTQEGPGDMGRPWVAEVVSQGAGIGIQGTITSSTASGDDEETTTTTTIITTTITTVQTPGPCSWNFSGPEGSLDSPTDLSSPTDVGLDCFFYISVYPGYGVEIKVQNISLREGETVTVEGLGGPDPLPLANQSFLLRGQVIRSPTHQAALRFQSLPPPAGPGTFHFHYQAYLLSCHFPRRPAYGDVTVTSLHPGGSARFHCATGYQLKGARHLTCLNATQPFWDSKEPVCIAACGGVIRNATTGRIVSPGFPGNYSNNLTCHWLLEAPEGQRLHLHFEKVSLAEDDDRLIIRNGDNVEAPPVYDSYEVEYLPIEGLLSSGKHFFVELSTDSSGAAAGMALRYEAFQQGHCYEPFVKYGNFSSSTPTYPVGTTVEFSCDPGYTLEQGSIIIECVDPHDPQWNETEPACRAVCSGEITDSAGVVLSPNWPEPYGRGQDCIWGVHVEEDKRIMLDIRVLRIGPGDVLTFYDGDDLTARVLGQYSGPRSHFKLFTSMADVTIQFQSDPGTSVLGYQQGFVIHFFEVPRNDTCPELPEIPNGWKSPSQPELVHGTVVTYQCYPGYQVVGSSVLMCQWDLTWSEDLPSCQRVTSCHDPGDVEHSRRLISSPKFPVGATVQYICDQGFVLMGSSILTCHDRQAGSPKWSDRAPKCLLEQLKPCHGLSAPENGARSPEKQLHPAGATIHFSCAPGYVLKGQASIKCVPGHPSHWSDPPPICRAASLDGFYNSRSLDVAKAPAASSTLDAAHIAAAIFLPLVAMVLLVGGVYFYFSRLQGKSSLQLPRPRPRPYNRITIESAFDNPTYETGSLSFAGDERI

B1: 3E2: humanized anti-SEZ6L2 antibody, VH SEQ ID NO: 9, VL SEQ ID NO: 13 (antibody, V domains shown)
VH: EVQLVESGGGLVQPGGSLKLSCAASGFSFNTITMNWVRQASGKGLEWVGRIRSKSNNYATYYADAVKDRFTISRDDSKNTAYLQMNSLKTEDTAVYYCVRGIFSGYVYAMDYWGQGTLVTVSSA
VL: DVVMTQSPLSLPVTVGQPASISCRSSQSIVHSNGNTYLEWFQQRPGQSPRVLIYKVSNRFSGVPDRFSGSGSGTDFTLKISRVEAEDVGVYYCFQGSHVPYTFGGGTKLEIKR
B2: 16H8: humanized anti-SEZ6L2 antibody, VH SEQ ID NO: 1, VL SEQ ID NO: 5 (antibody, V domains shown)
VH: QIQLVQPGAEVKKPGASVKVSCKASGYTFTSYWMYWVRQAPGQGLEWMGAIYPRDSDTSYNQKFKGRVTMTRVTSTSTVYMELSSLRSEDTAVYYCTRGDYYYGSSYYAMDYWGQGTTVTVSSA
VL: DIVMTQSPLSLPVTPGEPASISCSSSKSLLHSNGITYLYWYLQKPGQSPQLLIYRMSNLASGVPDRFSGSGSGTDFTLKISRVEAEDVGVYYCAQMLERPYTFGQGTKVEIKR
B3: 20C4: humanized anti-SEZ6L2 antibody, VH SEQ ID NO: 17, VL SEQ ID NO: 21 (antibody, V domains shown)
VH: EVQLVESGGGLVQPGGSLRLSCAASGFTFTDYYMSWVRQAPGKGLEWVALIRNKANGYTTEYSASVKGRFTISRDNSKNSLYLQMNSLRAEDTAVYYCARNGLYGLFAYWGQGTLVTVSSA
VL: DIVMTQTPLSIPVTPGEPASISCRSSTSLLESSGKHRLYWYLQKPGQSPQLLIYYMSNLASGVPDRFSGSGSGTDFTLKISRVEAEDFGVYYCMQSLEYPLTFGAGTKVEIKR
B4: 3B6: human anti-SEZ6L2 antibody, VH SEQ ID NO: 109, VL SEQ ID NO: 113 (antibody, V domains shown)
VH: QVQLVQSGAEVKKPGASVKVSCKASGYTFTAYYMHWVRQAPGQGLEWMGWINPNSGGTNYAQKFQGRVTMTRDTSIDTAYLDLSRLRSDDTAVYYCAKDSGYDWYFDIWGRGTLVTVSSA
VL: EIVLTQSPATLSLSPGERATLSCRASQNISSYLAWYQQKPGQAPRLLIYDASNRATGIPARFSGSGSGTDFTLTISSLEPEDFAVFYCQQHSNWPPLTFGGGTKVEIKR
B5: 2E4: humanized anti-SEZ6L2 antibody, VH SEQ ID NO: 25, VL SEQ ID NO: 29 (antibody, V domains shown)
VH: EVKLVESGGVLVKPGGSLRLSCAASGFTFSKYAMSWVRQAPGKGLEWVSTISSGGSYTYYPDSVKGRFTISRDNARNSLYLQMNSLRAEDTAIYYCTREGGYDEGYAMDYWGQGTTVTVSSA
VL: DIVMTQSPDSLAVSLGERATINCRSSQSLVHSYGNTYLHWYQQKPGQPPKLLIYKVSNRFSGVPDRFSGSGSGTDFTLTISSLQAEDVAVYFCSQSTHFRTFGGGTKVEIKR
B6: 3E2-PBD (conjugate)
VH: B1 VH
VL: B1 VL

Experiments:
[1] = biological target: T1, SEZ6L (293-SEZ6L); test: Flow cytometry specificity on overexpressing 293 cells; assay type: binding; details: primary antibody 1 ug/ml, live cells on ice
Procedure: (§1) In order to assess whether SEZ6L2 antibody modulators immunospecifically associate with human SEZ6L2, and to determine whether the same modulators cross-react with SEZ6 and SEZ6L, flow cytometry was performed using a MACSquant™ as per the manufacturer's instructions. More particularly, modulators were tested for cross reactivity to cell lines that overexpress the human homologs of SEZ6 (293-SEZ6), SEZ6L (293-SEZ6L), and SEZ6L2 (293-SEZ6L2).
(§2) Briefly, staining for flow cytometry was performed in lx cold PBS with 0.5% BSA. Primary antibodies (1 ug/ml) were incubated with live cells on ice for one hour. After washing in the same buffer, cells were incubated with Alexa Fluro® 488-conjugated anti-human IgG secondary antibody @1:1000 (709-546-149, Jackson ImmunoResearch) on ice in the dark. After a 30 minute incubation, cells were washed in the same buffer and re-suspended in buffer plus propidium iodide (PI) to identify live cells. As a negative control, cells were incubated with secondary antibody alone. Acquisition of the data was performed on a MACSQuant® Flow Cytometer (Miltenyi Biotec) and analyzed with FlowJo software.

[2] = biological target: T3, SEZ6L2 (293-SEZ6L2) (Homo sapiens, UniProt Q6UXD5); test: as above; assay type: binding; details: primary antibody 1 ug/ml, live cells on ice
T3 construct: cDNA encoding the complete mature human SEZ6L2 protein containing a C-terminal FLAG tag was purchased from Origene; FLAG (C); host or cells: HEK 293
Procedure: as §1, §2

[3] = biological target: T2, SEZ6 (293-SEZ6); test: as above; assay type: binding; details: primary antibody 1 ug/ml, live cells on ice
Procedure: as §1, §2

[4] = biological target: T4, Human SEZ6L2 (Homo sapiens, UniProt Q6UXD5); test: ForteBio Octet binding kinetics, Protein A biosensors
T4 construct: a protein composed of the extracellular portion of the human SEZ6L2 protein; His6 (C); made in house; host or cells: CHO (ExpiCHO)
Procedure: (§3) Affinity: The affinity of antibodies to various recombinant SEZ6L2 molecules was determined on an Octet Red (Pall, ForteBio) instrument. After loading reagents into a 96-well plate, the Octet Red with Protein A-conjugated biosensors was programmed as follows: 30 seconds for baseline #1; 120 seconds to immobilize the antibody; 30 seconds for baseline #2; 300 seconds for association of antibody to recombinant SEZ6L2; and 300-600 seconds for dissociation of recombinant SEZ6L2 from the antibody.
(§4) Table 10, below, indicates the KD, Kon, and Koff values for human antibodies 1A1, 3A1, 3A2, and 3A3 and humanized antibodies 16H8, 3E2, 20C4, and 2E4, for both human SEZ6L2 and cynomolgus monkey SEZL2, as determined by ForteBio Data Analysis 9.0 Kinetics software. Briefly, within the ForteBio Octet red96 instrument, Protein A biosensors were incubated with fixed amounts of the test antibody. The biosensors with bound antibody were then rinsed and dipped into wells containing varying concentrations of the recombinant target protein. Approximately 5 different concentrations were independently tested. After a period of time, the biosensors were dipped into buffer to allow the target protein to dissociate from the antibody. The ForteBio software package generated a best-fit curve for each of the profiles of the varying concentrations of target protein. The calculated affinity measurements were analyzed, and the rate constant values from the middle of the linear range were chosen.

[5] = test system: Cynomolgus monkey SEZ6L2; test: as above
Procedure: as §3, §4

[6] = test system: small cell lung cancer cell line NCI-H209; test: ADC combined with PARP inhibitor, cell viability; assay type: cell-based, human; details: 10 pM conjugate plus olaparib 10 nM to 10 uM, six days
Procedure: Briefly, the small cell lung cancer cell line NCI-H209, which expresses ˜10,000 copies of SEZ6L2 on the cell surface, was seeded onto 96 well plate at 5000 cells/well Immediately after seeding, 10 pM of 3E2-PBD or isotype control hIgG-PBD (bearing a drug antibody ratio (DAR) of 1.7 and 2.5 respectively) were added to the wells in complete culture medium. A PARP inhibitor (olaparib) was then added to these wells such that the final concentration ranged from 10 nM to 10 uM. The PARP inhibitor was also tested on cells without an ADC. Each treatment was replicated in 2 wells and after six days, the PARP inhibitor plus modulator-mediated PBD cytotoxicity was assessed by quantifying the remaining number of live cells using Cell Titer Glo™. Cell viability was graphed by Prism™ using ratio of cell viability of test conditions to that of control wells treated with growth medium only.

T4 sequence (Q6UXD5 28-844 limits assumed): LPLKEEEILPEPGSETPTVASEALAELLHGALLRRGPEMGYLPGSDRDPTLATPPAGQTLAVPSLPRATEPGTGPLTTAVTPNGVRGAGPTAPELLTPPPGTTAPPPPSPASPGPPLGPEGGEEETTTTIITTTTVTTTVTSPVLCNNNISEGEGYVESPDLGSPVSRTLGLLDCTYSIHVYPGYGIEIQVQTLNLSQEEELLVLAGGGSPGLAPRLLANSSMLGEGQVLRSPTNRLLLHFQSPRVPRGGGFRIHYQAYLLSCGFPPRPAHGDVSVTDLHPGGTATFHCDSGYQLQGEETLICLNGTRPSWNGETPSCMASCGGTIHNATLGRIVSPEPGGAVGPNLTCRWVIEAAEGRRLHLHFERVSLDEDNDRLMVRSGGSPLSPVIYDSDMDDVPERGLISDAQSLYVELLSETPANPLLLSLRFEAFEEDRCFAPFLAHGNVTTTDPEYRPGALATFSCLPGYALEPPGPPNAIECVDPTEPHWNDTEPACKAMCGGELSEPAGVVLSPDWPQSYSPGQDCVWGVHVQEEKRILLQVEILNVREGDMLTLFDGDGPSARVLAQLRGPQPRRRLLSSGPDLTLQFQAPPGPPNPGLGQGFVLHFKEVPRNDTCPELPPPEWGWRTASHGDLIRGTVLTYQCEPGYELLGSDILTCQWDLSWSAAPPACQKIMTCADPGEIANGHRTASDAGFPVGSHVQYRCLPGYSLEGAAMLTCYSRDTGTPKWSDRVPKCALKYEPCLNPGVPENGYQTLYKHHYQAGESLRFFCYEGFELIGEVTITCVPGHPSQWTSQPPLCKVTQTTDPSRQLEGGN
T3 sequence (Q6UXD5 28-910): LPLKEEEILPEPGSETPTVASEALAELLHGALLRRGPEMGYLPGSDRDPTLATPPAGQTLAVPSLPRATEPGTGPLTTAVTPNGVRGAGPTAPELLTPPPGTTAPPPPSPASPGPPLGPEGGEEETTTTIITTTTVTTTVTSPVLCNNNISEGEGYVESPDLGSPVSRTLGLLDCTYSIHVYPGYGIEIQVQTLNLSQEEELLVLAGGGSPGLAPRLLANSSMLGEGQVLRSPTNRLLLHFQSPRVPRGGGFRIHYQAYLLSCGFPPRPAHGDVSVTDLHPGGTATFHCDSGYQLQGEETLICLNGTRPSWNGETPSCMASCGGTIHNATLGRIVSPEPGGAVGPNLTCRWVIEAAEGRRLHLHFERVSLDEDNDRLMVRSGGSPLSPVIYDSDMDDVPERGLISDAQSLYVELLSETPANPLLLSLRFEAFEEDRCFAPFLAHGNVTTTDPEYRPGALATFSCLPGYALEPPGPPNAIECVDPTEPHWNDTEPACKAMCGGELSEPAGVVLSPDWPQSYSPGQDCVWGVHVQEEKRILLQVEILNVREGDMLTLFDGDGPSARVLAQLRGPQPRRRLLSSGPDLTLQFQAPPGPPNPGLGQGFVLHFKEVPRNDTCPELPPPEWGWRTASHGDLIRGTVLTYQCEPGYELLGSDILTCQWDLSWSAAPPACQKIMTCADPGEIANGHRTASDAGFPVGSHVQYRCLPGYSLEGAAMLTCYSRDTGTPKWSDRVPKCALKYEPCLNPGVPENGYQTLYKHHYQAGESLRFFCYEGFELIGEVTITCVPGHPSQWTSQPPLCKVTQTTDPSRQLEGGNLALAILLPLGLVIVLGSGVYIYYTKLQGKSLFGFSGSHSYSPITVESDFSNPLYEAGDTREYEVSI

Molecule	binding to 293-SEZ6L cells by flow cytometry [1]	binding to 293-SEZ6L2 cells by flow cytometry [2]	binding to 293-SEZ6 cells by flow cytometry [3]	K(off) [4]	K(on) [4]	K(off) [5]	K(on) [5]	percent viable cells, conjugate combined with PARP inhibitor [6]
B1	no detectable binding	recognize a cell line that overexpresses SEZ6L2	no detectable binding	3.19E−03	1.33E+06	2.95E−03	1.37E+06	
B2	no detectable binding	recognize a cell line that overexpresses SEZ6L2	no detectable binding	2.20E−04	6.03E+05			
B3	no detectable binding	recognize a cell line that overexpresses SEZ6L2	no detectable binding	2.20E−04	6.35E+04	3.18E−04	1.05E+05	
B4	no detectable binding	recognize a cell line that overexpresses SEZ6L2	no detectable binding					
B5	no detectable binding	recognize a cell line that overexpresses SEZ6L2	no detectable binding	1.33E−03	2.05E+05	1.94E−03	1.63E+05	
B6								additive effect
